Paper doi:10.1101/2024.05.10.593530

Target: Vibrio cholerae DdmD (Vibrio cholerae)
Assay: SEC-MALS

Vibrio cholerae DdmD (enzyme)
stoichiometry N: 2
